# Laboratory results from US20210054055A1 (UNIVERSITY OF VERMONT AND STATE AGRICULTURAL COLLEGE, published 2021).
# Where two headings read alike, the source gives them in different places.
# T1: MR766
# T1 envelope protein E: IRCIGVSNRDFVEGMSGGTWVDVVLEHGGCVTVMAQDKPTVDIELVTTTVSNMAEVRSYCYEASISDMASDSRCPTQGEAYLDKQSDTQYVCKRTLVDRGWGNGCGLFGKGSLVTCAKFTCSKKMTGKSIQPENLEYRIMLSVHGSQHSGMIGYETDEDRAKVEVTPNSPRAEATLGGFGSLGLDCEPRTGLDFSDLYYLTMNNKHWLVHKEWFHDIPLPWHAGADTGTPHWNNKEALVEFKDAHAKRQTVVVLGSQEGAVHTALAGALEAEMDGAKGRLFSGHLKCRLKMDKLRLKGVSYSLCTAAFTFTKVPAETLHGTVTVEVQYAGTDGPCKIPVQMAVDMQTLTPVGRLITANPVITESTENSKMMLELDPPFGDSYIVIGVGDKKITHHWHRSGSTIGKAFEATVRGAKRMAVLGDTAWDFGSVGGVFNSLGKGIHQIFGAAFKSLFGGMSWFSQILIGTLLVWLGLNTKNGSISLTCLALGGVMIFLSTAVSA
# B1: Anti-ZIKV clone DT168(A)-D1_A-9E (A9E) (antibody, V domains shown)
# VH: EVQLLESGGGLVQAGGSLRLSCAASGFTFDTYAMSWVRQPPGKGLEWVSAISTGGGSKYYADSVKGRLTISRDNSQNTLYLQMSSLRADDTAVYYCARSDFWRSGRYYYYMDVWGRGTTVTVSS
# VL: QSALTQPASVSASPGQSITISCTGTHFDIVDYDYLSWYQQHPGNAPKLLIYGVSNRPSGVSSRFSGSKSGNTASLTISGLQAEDEGDYYCSSYSISSTLLVFGGGTKLSV
# notes: also called ZV1; A9E mAb
# B2: Anti-ZIKV clone DT168(A)-D1_G-9E (G9E) (antibody, V domains shown)
# VH: EVQLVESGGGVVQPGRSLRLSCVASGFAFSNYHMHWVRQAPGKGLEWVAIIWDDGSDQYYADSVKGRFTISRDNSKNTLFLQMNRLRAEDTALYYCVGGSSAYNGDNGWREAASLDDWGQGTLVTVSS
# VL: QSALTQPASVSGSPGQSITIFCSGSSNDVGGYNYVSWYQQYPGKVPKLLIYDVNSRPSGVSNRFSGSKSGNTASLTISGLQAEDEADYYCSSYTSRRTWVFGGGTIVTVL
# notes: also called ZV2; G9E mAb
# Assays:
# [1] = target: T2, Zika virus (ZIKV) virions, envelope protein E (Zika virus, UniProt A0A024B7W1 291-794)
# [2] = target: T2, Zika virus (ZIKV) virions, envelope …; remark: listed apart in the source
# [3] = target: ZIKV/2015/Paraiba, envelope protein E (Zika virus strain ZIKV/2015/Paraiba); test: cell-based or functional assay
# [4] = target: T3, ZIKV recombinant E (ZIKV E80), recombinantly expressed monomeric ectodomain of ZIKV E protein (Zika virus, UniProt A0A024B7W1 291-694); test: direct antigen coating ELISA, 50 ng recombinant antigen per well; target ZIKV E80
# [5] = target: T2, Zika virus (ZIKV) virions, envelope …; remark: listed apart in the source
# [6] = target: T2, Zika virus (ZIKV) virions, envelope …; remark: listed apart in the source
# [7] = target: ZVEDIII, recombinant ZIKV E domain III (Zika virus, UniProt A0A024B7W1 586-693); test: direct antigen coating ELISA
# ZVEDIII, recombinant ZIKV E domain III, sequence (A0A024B7W1 586-693 limits assumed): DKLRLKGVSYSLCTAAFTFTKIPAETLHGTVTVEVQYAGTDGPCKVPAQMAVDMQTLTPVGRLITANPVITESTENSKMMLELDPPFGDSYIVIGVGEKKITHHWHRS
# [8] = target: T2, Zika virus (ZIKV) virions, envelope …; remark: listed apart in the source
# [9] = target: H/PF/2013 (Zika virus); test: cell-based or functional assay
# [10] = target: Dakar (Zika virus); test: cell-based or functional assay
# [11] = target: T1, MR766; test: cell-based or functional assay
# [12] = target: T4, ZVEDI, recombinant ZIKV E domain I (Zika virus, UniProt A0A024B7W1 291-585); test: direct antigen coating ELISA, 50 ng recombinant antigen per well; target ZVEDI (domain I)
# [13] = target: T5, Dengue virus serotype 1 (DENV1) virions, envelope protein E (Dengue virus 1, UniProt P17763 281-775); test: antigen capture ELISA
# T5 construct: domain: envelope protein E
# T5 sequence (P17763 281-775 limits assumed): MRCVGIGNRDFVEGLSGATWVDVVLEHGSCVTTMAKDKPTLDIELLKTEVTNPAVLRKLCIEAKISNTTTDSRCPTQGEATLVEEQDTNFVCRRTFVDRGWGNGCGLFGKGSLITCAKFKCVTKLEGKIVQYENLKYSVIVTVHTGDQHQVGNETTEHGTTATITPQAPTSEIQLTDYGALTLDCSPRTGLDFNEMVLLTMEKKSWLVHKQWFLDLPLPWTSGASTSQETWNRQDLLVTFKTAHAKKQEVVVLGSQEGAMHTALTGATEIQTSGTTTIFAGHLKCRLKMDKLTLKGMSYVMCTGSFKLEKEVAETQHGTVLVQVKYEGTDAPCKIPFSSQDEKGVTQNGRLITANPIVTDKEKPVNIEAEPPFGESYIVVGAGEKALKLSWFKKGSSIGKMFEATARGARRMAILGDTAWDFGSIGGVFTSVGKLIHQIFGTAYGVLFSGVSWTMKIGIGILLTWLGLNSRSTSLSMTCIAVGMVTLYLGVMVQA
# [14] = target: T3, ZIKV recombinant E (ZIKV E80), …
# [15] = target: T3, ZIKV recombinant E (ZIKV E80), …; remark: listed apart in the source
# [16] = target: T3, ZIKV recombinant E (ZIKV E80), …; remark: listed apart in the source
# [17] = target: T4, ZVEDI, recombinant ZIKV E domain I; test: direct antigen coating ELISA
Binder,IC50 (read off the curve) [1],EC50 (read off the curve) [2],"EC50, Vero-based neutralization assay against ZIKA/2015/Paraiba [3]",EC50 [4],IC50 (read off the curve) [5],EC50 (read off the curve) [6],binding result [7],IC50 (read off the curve) [8],FRNT50 (focus reduction neutralization on Vero cells) [9],FRNT50 (focus reduction neutralization on Vero cells) [10],FRNT50 (focus reduction neutralization on Vero cells) [11],EC50 [12],binding result [13],EC50 (read off the curve) [14],EC50 (read off the curve) [15],EC50 (read off the curve) [16],binding result [17]
B1,~60 ng/mL,~20 ng/mL,5 to 10 ng/mL,0.04 µg/mL,~70 ng/mL,~20 ng/mL,no binding,~8 ng/mL,4.7 ng/mL,21.7 ng/mL,5.3 ng/mL,2.5 µg/mL,no binding,–,–,–,–
B2,~50 ng/mL,~30 ng/mL,–,–,~50 ng/mL,~30 ng/mL,no binding,~400 ng/mL,4.7 ng/mL,14.6 ng/mL,2.3 ng/mL,–,no binding,~300 ng/mL,~200 ng/mL,~200 ng/mL,no binding
